B1: STK36: human serine/threonine kinase STK36, mammalian orthologue of dFu, expressed from STK36pcDNA3.1 (protein, UniProt Q9NRP7 1-1315, looked up)
Serine/threonine-protein …: MEKYHVLEMIGEGSFGRVYKGRRKYSAQVVALKFIPKLGRSEKELRNLQREIEIMRGLRHPNIVHMLDSFETDKEVVVVTDYAEGELFQILEDDGKLPEDQVQAIAAQLVSALYYLHSHRILHRDMKPQNILLAKGGGIKLCDFGFARAMSTNTMVLTSIKGTPLYMSPELVEERPYDHTADLWSVGCILYELAVGTPPFYATSIFQLVSLILKDPVRWPSTISPCFKNFLQGLLTKDPRQRLSWPDLLYHPFIAGHVTIITEPAGPDLGTPFTSRLPPELQVLKDEQAHRLAPKGNQSRILTQAYKRMAEEAMQKKHQNTGPALEQEDKTSKVAPGTAPLPRLGATPQESSLLAGILASELKSSWAKSGTGEVPSAPRENRTTPDCERAFPEERPEVLGQRSTDVVDLENEEPDSDNEWQHLLETTEPVPIQLKAPLTLLCNPDFCQRIQSQLHEAGGQILKGILEGASHILPAFRVLSSLLSSCSDSVALYSFCREAGLPGLLLSLLRHSQESNSLQQQSWYGTFLQDLMAVIQAYFACTFNLERSQTSDSLQVFQEAANLFLDLLGKLLAQPDDSEQTLRRDSLMCFTVLCEAMDGNSRAISKAFYSSLLTTQQVVLDGLLHGLTVPQLPVHTPQGAPQVSQPLREQSEDIPGAISSALAAICTAPVGLPDCWDAKEQVCWHLANQLTEDSSQLRPSLISGLQHPILCLHLLKVLYSCCLVSEGLCRLLGQEPLALESLFMLIQGKVKVVDWEESTEVTLYFLSLLVFRLQNLPCGMEKLGSDVATLFTHSHVVSLVSAAACLLGQLGQQGVTFDLQPMEWMAAATHALSAPAEVRLTPPGSCGFYDGLLILLLQLLTEQGKASLIRDMSSSEMWTVLWHRFSMVLRLPEEASAQEGELSLSSPPSPEPDWTLISPQGMAALLSLAMATFTQEPQLCLSCLSQHGSILMSILKHLLCPSFLNQLRQAPHGSEFLPVVVLSVCQLLCFPFALDMDADLLIGVLADLRDSEVAAHLLQVCCYHLPLMQVELPISLLTRLALMDPTSLNQFVNTVSASPRTIVSFLSVALLSDQPLLTSDLLSLLAHTARVLSPSHLSFIQELLAGSDESYRPLRSLLGHPENSVRAHTYRLLGHLLQHSMALRGALQSQSGLLSLLLLGLGDKDPVVRCSASFAVGNAAYQAGPLGPALAAAVPSMTQLLGDPQAGIRRNVASALGNLGPEGLGEELLQCEVPQRLLEMACGDPQPNVKEAALIALRSLQQEPGIHQVLVSLGASEKLSLLSLGNQSLPHSSPRPASAKHCRKLIHLLRPAHSM
B2: ULK1: unc-51-like kinase 1, homologue of ULK3, overexpressed in Shh-L2 cells (protein, UniProt O75385 1-1050, looked up)
Serine/threonine-protein …: MEPGRGGTETVGKFEFSRKDLIGHGAFAVVFKGRHREKHDLEVAVKCINKKNLAKSQTLLGKEIKILKELKHENIVALYDFQEMANSVYLVMEYCNGGDLADYLHAMRTLSEDTIRLFLQQIAGAMRLLHSKGIIHRDLKPQNILLSNPAGRRANPNSIRVKIADFGFARYLQSNMMAATLCGSPMYMAPEVIMSQHYDGKADLWSIGTIVYQCLTGKAPFQASSPQDLRLFYEKNKTLVPTIPRETSAPLRQLLLALLQRNHKDRMDFDEFFHHPFLDASPSVRKSPPVPVPSYPSSGSGSSSSSSSTSHLASPPSLGEMQQLQKTLASPADTAGFLHSSRDSGGSKDSSCDTDDFVMVPAQFPGDLVAEAPSAKPPPDSLMCSGSSLVASAGLESHGRTPSPSPPCSSSPSPSGRAGPFSSSRCGASVPIPVPTQVQNYQRIERNLQSPTQFQTPRSSAIRRSGSTSPLGFARASPSPPAHAEHGGVLARKMSLGGGRPYTPSPQVGTIPERPGWSGTPSPQGAEMRGGRSPRPGSSAPEHSPRTSGLGCRLHSAPNLSDLHVVRPKLPKPPTDPLGAVFSPPQASPPQPSHGLQSCRNLRGSPKLPDFLQRNPLPPILGSPTKAVPSFDFPKTPSSQNLLALLARQGVVMTPPRNRTLPDLSEVGPFHGQPLGPGLRPGEDPKGPFGRSFSTSRLTDLLLKAAFGTQAPDPGSTESLQEKPMEIAPSAGFGGSLHPGARAGGTSSPSPVVFTVGSPPSGSTPPQGPRTRMFSAGPTGSASSSARHLVPGPCSEAPAPELPAPGHGCSFADPITANLEGAVTFEAPDLPEETLMEQEHTEILRGLRFTLLFVQHVLEIAALKGSASEAAGGPEYQLQESVVADQISLLSREWGFAEQLVLYLKVAELLSSGLQSAIDQIRAGKLCLSSTVKQVVRRLNELYKASVVSCQGLSLRLQRFFLDKQRLLDRIHSITAERLIFSHAVQMVQSAALDEMFQHREGCVPRYHKALLLLEGLQHMLSDQADIENVTKCKLCIERRLSALLTGICA

Test system: GLI-dependent firefly luciferase activity in Shh-LIGHT2 cells
Test: GLI-dependent luciferase assay in Shh-L2 cells
Format: cell-based, mouse
Conditions: for enhancement of transcriptional activity of overexpressed GLI1: cotransfected with GLI1, Shh-L2 cells; for enhancement of transcriptional activity of overexpressed GLI2: cotransfected with GLI2, Shh-L2 cells; for stimulation of GLI-dependent luciferase activity: kinase construct alone, Shh-L2 cells, normalized with β-galactosidase
Description: Cells were transfected by the expression constructs or respective empty vectors using Polyethylenimine transfection agent (PEI) (Inbio) and as described in [28]. We used 0.25 μg of cDNA per 1 cm^2 of plate surface area for transfections. After 3 h of transfection HEK293, NIH3T3 and Cos1 cells were propagated in the normal growth medium for 48 h. Prior the further analysis the cells were washed twice with PBS. Post-transfectional Shh-L2 cells were grown in the normal growth medium for 24 h and for additional 24 h in the Light medium containing 0.25% FBS, washed once with PBS, lysed in Passive Lysis Buffer (Promega, Madison Wis., USA) (70 ul per well of 24-well plate format) and subjected to luciferase assay.
Luciferase assay was performed as previously described. Briefly, firefly luciferase activity of 12 μl of the Shh-L2 cells lysate was measured using Luciferase Assay Kit (Promega) and galactosidase activity was quantified using Galacto-LightPlus kit (Tropix, Bedford Mass., USA) according to the manufacturer's instructions. Chemiluminicence was measured using Ascent FL Fluoroscan (Thermo Electron Corporation, Waltham Mass., USA) according to the manufacturer's instructions.
We cotransfected the constructs together with GLI-expressing plasmids (or respective empty vector) into Shh-L2 cells and assessed their effect on GLI-dependent firefly luciferase activity. The obtained data was normalized with β-galactosidase values. […] It was able to stimulate the luciferase activity 3.8 times and enhanced the transcriptional activity of over expressed GLI1 and GLI2 approximately 2 and 3.2 times, respectively. The potency of STK36 in the assay was much lower.
In order to examine if the kinase activity of ULK3 is required for the luciferase reporter activation we tested the supposed kinase-deficient variants of ULK3, ULK3(K44R) and ULK3(K139R) in the same assay. […] We also tested the effect of ULK3 and the mutants on the luciferase reporter when the SHH pathway was activated by cotransfection with pShhN (plasmid expressing biologically active part of SHH).

| Molecule | enhancement of transcriptional activity of overexpressed GLI1 | enhancement of transcriptional activity of overexpressed GLI2 | stimulation of GLI-dependent luciferase activity |
| --- | --- | --- | --- |
| B1 | no effect | 1.6 times | failed to activate |
| B2 | no effect | no effect | 3.4 times |

— US20130040894A1, “INHIBITION OR ACTIVATION OF SERINE/THREONINE ULK3 KINASE ACTIVITY” (TALLINN UNIVERSITY OF TECHNOLOGY, priority 2009, published 2013)
